{"source": "patent US8431365B2", "about": "“β1,3-N-acetyl-D-galactosamine transferase protein, nucleic acid encoding the same and method of examining canceration using the same” (National Institute of Advanced Industrial Science and …, priority 2003, dated 2013)", "format_in_all_cases": "biochemical", "key": {"human G34 protein [1]": {"biological_target": "T1, human G34 protein (Homo sapiens, UniProt Q8NCR0)", "T1 construct": "made in house; host or cells: Sf21 insect cells (baculovirus, pFBIF-G34A)", "T1 sequence (Q8NCR0 36-500)": "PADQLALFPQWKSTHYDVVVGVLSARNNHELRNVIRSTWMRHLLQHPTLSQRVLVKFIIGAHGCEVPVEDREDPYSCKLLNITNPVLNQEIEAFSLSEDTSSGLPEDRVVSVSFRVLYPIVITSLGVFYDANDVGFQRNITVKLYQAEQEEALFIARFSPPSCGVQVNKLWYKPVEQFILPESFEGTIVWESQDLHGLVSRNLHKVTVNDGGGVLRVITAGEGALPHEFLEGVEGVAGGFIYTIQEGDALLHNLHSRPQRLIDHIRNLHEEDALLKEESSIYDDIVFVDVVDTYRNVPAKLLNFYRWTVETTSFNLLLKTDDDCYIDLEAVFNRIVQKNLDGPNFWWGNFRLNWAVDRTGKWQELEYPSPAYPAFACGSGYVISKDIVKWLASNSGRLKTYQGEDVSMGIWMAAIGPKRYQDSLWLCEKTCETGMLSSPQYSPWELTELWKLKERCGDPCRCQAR", "assay": "Screening of GalNAc transferase activity (acceptor substrate specificity, monosaccharide acceptors)", "conditions": "10 nmol acceptor, MES pH 6.5, MnCl2 10 mM, 37° C. 16 hours", "description": "The following reaction system was used for examining the G34 enzyme protein for its acceptor substrate specificity in its GalNAc transfer activity.\nIn the reaction solutions shown below, each of the following was used at 10 nmol as an acceptor substrate: pNp-α-Gal, oNp-β-Gal, Bz-α-GlcNAc, pNp-β-GlcNAc, Bz-α-GalNAc, pNp-β-GalNAc, pNp-α-Glc, pNp-β-Glc, pNp-β-GlcA, pNp-α-Fuc, pNp-α-Xyl, pNp-β-Xyl and pNp-α-Man (all purchased from SIGMA), wherein “Gal” represents a D-galactose residue, “Xyl” represents a D-xylose residue, “Fuc” represents a […] residue, “Man” represents a D-mannose residue and “GlcA” represents a glucuronic acid residue.\nEach reaction solution was prepared as follows (final concentrations in parentheses): each substrate (10 nmol), MES (2-morpholinoethanesulfonic acid) (pH 6.5, 50 mM), MnCl2 (10 mM), Triton X-100 (trade name) (0.1%), UDP-GalNAc (2 mM) and UDP-[^14C]GlcNAc (40 nCi) were mixed and supplemented with 5 μl G34 enzyme solution, followed by dilution with H2O to a total volume of 20 μl (see Table 1).\nThe above reaction mixtures were each reacted at 37° C. for 16 hours. After completion of the reaction, 200 μl H2O was added and each mixture was lightly centrifuged to obtain the supernatant. […] The eluate was mixed with 5 ml liquid scintillator ACSII (Amersham Biosciences) and measured for the amount of radiation with a scintillation counter (Beckman Coulter)."}, "human G34 protein [2]": {"biological_target": "T1, human G34 protein", "assay": "Time course of G34 enzymatic activity with Bz-β-GlcNAc as acceptor"}, "human G34 protein [3]": {"biological_target": "T1, human G34 protein", "assay": "Optimum buffer and optimum pH for GalNAc transferase activity of G34", "conditions": "acceptor pNp-β-GlcNAc", "procedure": "The following reaction system was used for examining the optimum buffer and pH for the GalNAc transferase activity of G34. The acceptor substrate used was pNp-β-GlcNAc.\nAny one of the following buffers was used (final concentrations in parentheses): MES (2-morpholinoethanesulfonic acid) buffer (pH 5.5, 5.78, 6.0, 6.5 and 6.75, 50 mM), sodium cacodylate buffer (pH 5.0, 5.6, 6.0, 6.2, 6.6, 6.8, 7.0, 7.2, 7.4 and 7.5, 25 mM) and N-[2-hydroxyethyl]piperazine-N′-[2-ethanesulfonic acid](HEPES) buffer (pH 6.75, 7.00, 7.30, 7.40 and 7.50, 14 mM). The substrate (10 nmol), MnCl2 (10 mM), Triton CF-54 (trade name) (0.3%), UDP-GalNAc (2 mM) and […] (40 nCi) were mixed and supplemented with 5 μl G34 enzyme solution, followed by dilution with H2O to a total volume of 20 μl.\nThe above reaction mixtures were each reacted at 37° C. for 16 hours. After completion of the reaction, 200 μl H2O was added and each mixture was lightly centrifuged to obtain the supernatant. The supernatant was passed through a Sep-Pak plus C18 Cartridge (Waters), which had been washed once with 1 ml methanol and twice with 1 ml H2O and then equilibrated, to allow the substrate and product in the supernatant to adsorb to the cartridge. After washing the cartridge twice with 1 ml H2O, the adsorbed substrate and product were eluted with 1 ml methanol. The eluate was mixed with 5 ml liquid scintillator ACSII (Amersham Biosciences) and measured for the amount of radiation with a scintillation counter (Beckman Coulter)."}, "[4]": {"conditions": "sodium cacodylate buffer pH 5.0"}, "[5]": {"conditions": "sodium cacodylate buffer pH 5.6"}, "[6]": {"conditions": "sodium cacodylate buffer pH 6.0"}, "[7]": {"conditions": "sodium cacodylate buffer pH 6.2"}, "[8]": {"conditions": "sodium cacodylate buffer pH 6.6"}, "[9]": {"conditions": "sodium cacodylate buffer pH 6.8"}, "[10]": {"conditions": "sodium cacodylate buffer pH 7.0"}, "[11]": {"conditions": "sodium cacodylate buffer pH 7.2"}, "[12]": {"conditions": "sodium cacodylate buffer pH 7.4"}}}
{"molecule": "CC(=O)N[C@H]1[C@H](Oc2ccc([N+](=O)[O-])cc2)O[C@H](CO)[C@@H](O)[C@@H]1O", "note": "[pNp-β-GlcNAc]", "values": [{"measurement": "GalNAc transfer to acceptor substrate", "setting": "human G34 protein [1]", "value": "ability to transfer GalNAc to pNp-β-GlcNAc"}]}
{"molecule": "G34: human β1,3-N-acetyl-D-galactosaminyltransferase protein (SEQ ID NO: 2), expressed FLAG-tagged from amino acid 36 to the C-terminal end (protein, listed as Homo sapiens, FLAG tag) PADQLALFPQWKSTHYDVVVGVLSARNNHELRNVIRSTWMRHLLQHPTLSQRVLVKFIIGAHGCEVPVEDREDPYSCKLLNITNPVLNQEIEAFSLSEDTSSGLPEDRVVSVSFRVLYPIVITSLGVFYDANDVGFQRNITVKLYQAEQEEALFIARFSPPSCGVQVNKLWYKPVEQFILPESFEGTIVWESQDLHGLVSRNLHKVTVNDGGGVLRVITAGEGALPHEFLEGVEGVAGGFIYTIQEGDALLHNLHSRPQRLIDHIRNLHEEDALLKEESSIYDDIVFVDVVDTYRNVPAKLLNFYRWTVETTSFNLLLKTDDDCYIDLEAVFNRIVQKNLDGPNFWWGNFRLNWAVDRTGKWQELEYPSPAYPAFACGSGYVISKDIVKWLASNSGRLKTYQGEDVSMGIWMAAIGPKRYQDSLWLCEKTCETGMLSSPQYSPWELTELWKLKERCGDPCRCQAR", "values": [{"measurement": "Area (%)", "setting": "human G34 protein [2]; reaction time 1 hour", "value": 0, "unit": "%"}, {"measurement": "Area (%)", "setting": "human G34 protein [2]; reaction time 2 hours", "value": 2.388, "unit": "%"}, {"measurement": "Area (%)", "setting": "human G34 protein [2]; reaction time 4 hours", "value": 6.195, "unit": "%"}, {"measurement": "Area (%)", "setting": "human G34 protein [2]; reaction time 16 hours", "value": 13.719, "unit": "%"}, {"measurement": "+ (amount of radiation)", "setting": "human G34 protein [3]; HEPES buffer pH 6.75", "value": 4894}, {"measurement": "HEPES (+ minus −)", "setting": "human G34 protein [3]; HEPES buffer pH 6.75", "value": 4745}, {"measurement": "+ (amount of radiation)", "setting": "human G34 protein [3]; HEPES buffer pH 7.00", "value": 4912}, {"measurement": "HEPES (+ minus −)", "setting": "human G34 protein [3]; HEPES buffer pH 7.00", "value": 4791}, {"measurement": "+ (amount of radiation)", "setting": "human G34 protein [3]; HEPES buffer pH 7.30", "value": 4294}, {"measurement": "HEPES (+ minus −)", "setting": "human G34 protein [3]; HEPES buffer pH 7.30", "value": 4167}, {"measurement": "+ (amount of radiation)", "setting": "human G34 protein [3]; HEPES buffer pH 7.40", "value": 6630}, {"measurement": "HEPES (+ minus −)", "setting": "human G34 protein [3]; HEPES buffer pH 7.40", "value": 6510}, {"measurement": "+ (amount of radiation)", "setting": "human G34 protein [3]; HEPES buffer pH 7.50", "value": 6895}, {"measurement": "HEPES (+ minus −)", "setting": "human G34 protein [3]; HEPES buffer pH 7.50", "value": 6655}, {"measurement": "+ (amount of radiation)", "setting": "human G34 protein [3]; MES buffer pH 5.50", "value": 3735}, {"measurement": "MES (+ minus −)", "setting": "human G34 protein [3]; MES buffer pH 5.50", "value": 3538}, {"measurement": "+ (amount of radiation)", "setting": "human G34 protein [3]; MES buffer pH 5.78", "value": 3755}, {"measurement": "MES (+ minus −)", "setting": "human G34 protein [3]; MES buffer pH 5.78", "value": 3571}, {"measurement": "+ (amount of radiation)", "setting": "human G34 protein [3]; MES buffer pH 6.00", "value": 2514}, {"measurement": "MES (+ minus −)", "setting": "human G34 protein [3]; MES buffer pH 6.00", "value": 2373}, {"measurement": "+ (amount of radiation)", "setting": "human G34 protein [3]; MES buffer pH 6.50", "value": 1981}, {"measurement": "MES (+ minus −)", "setting": "human G34 protein [3]; MES buffer pH 6.50", "value": 1247}, {"measurement": "+ (amount of radiation)", "setting": "human G34 protein [3]; MES buffer pH 6.75", "value": 3289}, {"measurement": "MES (+ minus −)", "setting": "human G34 protein [3]; MES buffer pH 6.75", "value": 3153}, {"measurement": "+ (amount of radiation)", "setting": "human G34 protein [3]; [4]", "value": 6042}, {"measurement": "Sodium cacodylate (+ minus −)", "setting": "human G34 protein [3]; [4]", "value": 5838}, {"measurement": "+ (amount of radiation)", "setting": "human G34 protein [3]; [5]", "value": 3353}, {"measurement": "Sodium cacodylate (+ minus −)", "setting": "human G34 protein [3]; [5]", "value": 3194}, {"measurement": "+ (amount of radiation)", "setting": "human G34 protein [3]; [6]", "value": 2689}, {"measurement": "Sodium cacodylate (+ minus −)", "setting": "human G34 protein [3]; [6]", "value": 2429}, {"measurement": "+ (amount of radiation)", "setting": "human G34 protein [3]; [7]", "value": 907}, {"measurement": "Sodium cacodylate (+ minus −)", "setting": "human G34 protein [3]; [7]", "value": 769}, {"measurement": "+ (amount of radiation)", "setting": "human G34 protein [3]; [8]", "value": 1093}, {"measurement": "Sodium cacodylate (+ minus −)", "setting": "human G34 protein [3]; [8]", "value": 957}, {"measurement": "+ (amount of radiation)", "setting": "human G34 protein [3]; [9]", "value": 2488}, {"measurement": "Sodium cacodylate (+ minus −)", "setting": "human G34 protein [3]; [9]", "value": 2230}, {"measurement": "+ (amount of radiation)", "setting": "human G34 protein [3]; [10]", "value": 4965}, {"measurement": "Sodium cacodylate (+ minus −)", "setting": "human G34 protein [3]; [10]", "value": 4706}, {"measurement": "+ (amount of radiation)", "setting": "human G34 protein [3]; [11]", "value": 4377}, {"measurement": "Sodium cacodylate (+ minus −)", "setting": "human G34 protein [3]; [11]", "value": 4068}, {"measurement": "+ (amount of radiation)", "setting": "human G34 protein [3]; [12]", "value": 4930}, {"measurement": "Sodium cacodylate (+ minus −)", "setting": "human G34 protein [3]; [12]", "value": 4626}]}
